Read-outs that look alike come from different tables or passages of the source.

The target in assay [1] is T1, MHC class I molecule HLA-A*0201 (iTopia plate-bound monomer) (biotin (bound to streptavidin-coated plate)).
T1 construct: also called A2
The assay is described as follows: iTopia off-rate assay, 37 C; fit R^2 0.63. The method, then: (§1) The 9 mers were tested for Peptide Binding, Off Rate and Affinity using iTopia Epitope Discovery System in accordance with the manufacturer's instructions. Briefly, 96 well microtitre plates coated with MHC molecules representing different MHC alleles are used to identify candidate peptides. […] Determinations are performed in duplicate using an ELISA plate reader and included allele specific positive controls.
(§2) A one-phase exponential decay curve, with a plateau given equal to 0, was generated using GraphPad Prism® software, which calculated the t1/2 and goodness-of-fit, as measured by r², for each peptide.

For assay [2], the target named is T1, MHC class I molecule HLA-A*0201 (iTopia …). Kind of assay: iTopia off-rate assay, 37 C; fit R^2 0.98. The method, then:
as §1, §2

Assay [3] shares this target. Kind of assay: iTopia off-rate assay, 37 C; fit R^2 0.97. The method, then: as §1, §2
Assay [4] deals with T2, MHC class I allele A*0101 monomer (human, biotinylated, bound to streptavidin-coated plate).
T2 construct: placeholder peptide and b2M removed, then reconstituted with test peptide and fresh b2M; also called A1; HLA-A1
Kind of assay: iTopia, multiparametric iScore. In short, it runs like this: (§3)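 9-mer peptides were tested on plates coated with MHC molecules, measuring binding, off-rate and affinity by ELISA in duplicate with allele-specific positive controls.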

In assay [5] the target is T3, MHC class I allele A*0201 monomer (human, biotinylated, bound to streptavidin-coated plate).
T3 construct: also called A2; HLA-A2
Kind of assay: iTopia, multiparametric iScore. The procedure, abridged: as §3

Assay [6] addresses T4, MHC class I allele A*0301 monomer (human, biotinylated, bound to streptavidin-coated plate).
T4 construct: also called A3; HLA-A3
Kind of assay: iTopia, multiparametric iScore. In short, it runs like this:
as §3

For assay [7], the target named is T5, MHC class I allele B*0702 monomer (human, biotinylated, bound to streptavidin-coated plate).
T5 construct: also called B7; HLA-B7
Kind of assay: iTopia, multiparametric iScore. In short, it runs like this:
as §3

Assay [8] addresses T3, MHC class I allele A*0201 monomer. The assay is described as follows: iTopia, multiparametric iScore. The protocol:
as §1
(§4) Finally, multiparametric analysis is performed on the results from these assays and an iScore is generated. The iScore represents a measure of the overall quality of peptide-MHC binding, enabling candidate peptides to be ranked in order of binding quality and allowing rational prioritisation of peptides for functional cellular follow-up studies.
This is another data set of the same source.

The target of assay [9] is T4, MHC class I allele A*0301 monomer. Kind of assay: iTopia, multiparametric iScore. The method, then:
as §1, §4
This is another data set of the same source.

For assay [10], the target named is T1, MHC class I molecule HLA-A*0201 (iTopia …). The assay is described as follows: iTopia off-rate assay, 37 C; fit R^2 0.85. The protocol:
as §1, §2

Assay [11] addresses T2, MHC class I allele A*0101 monomer. Kind of assay: iTopia, multiparametric iScore. The method, then:
as §1, §4
The source holds these as a separate data set.

In assay [12] the target is T5, MHC class I allele B*0702 monomer. The assay is described as follows: iTopia, multiparametric iScore. The method, then:
as §1, §4
The source holds these as a separate data set.

In assay [13] the target is T1, MHC class I molecule HLA-A*0201 (iTopia …). The assay is described as follows: iTopia off-rate assay, 37 C; fit R^2 0.94. The protocol:
as §1, §2

Assay [14] has the same target. Kind of assay: iTopia off-rate assay, 37 C; fit R^2 0.95. The method, then:
as §1, §2

Assay [15] shares this target. Kind of assay: iTopia off-rate assay, 37 C; fit R^2 0.89. The protocol:
as §1, §2

Assay [16] shares this target. Kind of assay: iTopia off-rate assay, 37 C; fit R^2 0.87. The protocol:
as §1, §2

For assay [17] the target is unchanged. Kind of assay: iTopia off-rate assay, 37 C; fit R^2 0.81. The protocol:
as §1, §2

Assay [18] shares this target. Kind of assay: iTopia off-rate assay, 37 C; fit R^2 0.91. The protocol: as §1, §2
For assay [19] the target is unchanged. Kind of assay: iTopia off-rate assay, 37 C; fit R^2 0.84. The protocol:
as §1, §2

The target is the same in assay [20]. Kind of assay: iTopia off-rate assay, 37 C; fit R^2 0.77. The protocol:
as §1, §2

The target is the same in assay [21]. The assay is described as follows: iTopia off-rate assay, 37 C; fit R^2 0.9. The method, then: as §1, §2

Take SPLVELILN (also called Peptide No 87) [5T4 9-mer peptide 87 SPLVELILN]: the t½ half life in assay [1] is 2.4 h. The molecule NLFLTGNQL (also called Peptide No 48) [5T4 9-mer peptide 48 NLFLTGNQL] showed a t½ half life in [2] of 0.5 h. In turn, FLASAVSAQ (also called Peptide No 24) [5T4 9-mer peptide 24 FLASAVSAQ] came in with a t½ half life in [3] of 0.7 h. In the case of NRVLLELNS (also called Peptide No 166) [5T4 9-mer peptide 166 NRVLLELNS], in [1], the t½ half life is 1.3 h. As to GLPHIRVFL [5T4 9-mer peptide 142], the iScore in [4] came to 0; in assay [5] it was 1.89; in assay [6], 0.319; in assay [7], 0.075; in assay [8] it was 1.39; in assay [9] it was 0.319. On to LSPFAFSGS (also called Peptide No 79) [5T4 9-mer peptide 79 LSPFAFSGS], for which, in assay [10], the t½ half life was 0.4 h. Consider LTYVSFRNL [5T4 9-mer peptide 125], for which the iScore in assay [4] amounted to 0.522; in assay [5], 1.11; in assay [6], 0.157; in assay [7], 0.574; in assay [11], 0.522; in [8], 1.11. In addition, the iScore in assay [9] was 0.157; in assay [12] it was 0.574. Molecule SSAPFLASA (also called Peptide No 22) [5T4 9-mer peptide 22 SSAPFLASA] showed a t½ half life in assay [2] of 1.3 h. In the case of FARRPPLAE (also called Peptide No 56) [5T4 9-mer peptide 56 FARRPPLAE], the t½ half life in [13] stood at 0.3 h. For the molecule AQLPSLRHL [5T4 9-mer peptide 116 AQLPSLRHL], the t½ half life in assay [14] turned out to be 0.7 h. In [15], AVSAQPPLP (also called Peptide No 26) [5T4 9-mer peptide 26 AVSAQPPLP] yielded a t½ half life of 1.7 h. Turning to QNRSFEGMV (also called Peptide No 96) [5T4 9-mer peptide 96 QNRSFEGMV], in assay [16], the t½ half life is 2.4 h. In turn, VLLELNSAD (also called Peptide No 167) [5T4 9-mer peptide 167 VLLELNSAD] yielded a t½ half life in [17] of 0.8 h. The same measure, in the same setting: next, PALCECSEA (also called Peptide No 32) [5T4 9-mer peptide 32 PALCECSEA]: 2.2 h. As to NLTEVPTDL (also called Peptide No 41) [5T4 9-mer peptide 41 NLTEVPTDL], the t½ half life in assay [2] worked out at 1.4 h. Turning to AGDGRLRLA (also called Peptide No 6) [5T4 9-mer peptide 6 AGDGRLRLA], the t½ half life in [13] amounted to 0.1 h. Turning to VPTDLPAYV [5T4 9-mer peptide 43], in assay [11], the iScore stood at 0.098. SASSFSSSA (also called Peptide No 19) [5T4 9-mer peptide 19 SASSFSSSA] registered a t½ half life in [18] of 0.2 h. Consider HMADMVTWL [5T4 9-mer peptide 151 HMADMVTWL], for which the t½ half life in assay [19] was found to be 7.9 h. The molecule GWVSSSSPT (also called Peptide No 14) [5T4 9-mer peptide 14 GWVSSSSPT] came in with a t½ half life in assay [13] of 1 h. With KWMHNIRDA (also called Peptide No 192) [5T4 9-mer peptide 192 KWMHNIRDA], in assay [10], the t½ half life stood at 1.4 h. TSSASSFSS (also called Peptide No 18) [5T4 9-mer peptide 18 TSSASSFSS] gave a t½ half life in [3] of 0.7 h. For the molecule LASNHFLYL [5T4 9-mer peptide 109], the iScore in [11] was 0.12; in [8] it was 0.337; in [9], 0.224. As to HMEGYHYRY [5T4 9-mer peptide 198], the iScore was 0.357 in [4]; 0.24 in assay [5]; 0.189 in assay [6]; 0 in [7]; 0.357 in assay [11]; 0.189 in [9]. As to VCDCHMADM (also called Peptide No 149) [5T4 9-mer peptide 149 VCDCHMADM], the t½ half life in assay [10] was determined as 1.4 h.

The molecule AYVRNLFLT (also called Peptide No 46) [5T4 9-mer peptide 46 AYVRNLFLT] came in with a t½ half life in assay [20] of 6.8 h.

B1: 5T4 9-mer peptide 78 ADLSPFAFS (peptide)
peptide: ADLSPFAFS
notes: it stands between 77 and 79; also called Peptide No 78
Regarding B1, the t½ half life in assay [18] stood at 2.6 h.

Turning to LTCAYPEKM [5T4 9-mer peptide 161], the iScore in assay [4] was found to be 0.139; in assay [5] it was 0.158; in assay [6], 0; in assay [7], 0; in [11], 0.139. In assay [21], LLAGRALQG (also called Peptide No 102) [5T4 9-mer peptide 102 LLAGRALQG] gave a t½ half life of 1.4 h.

With LELASNHFL [5T4 9-mer peptide 108 LELASNHFL], in assay [14], the t½ half life was determined as 1.4 h.

In assay [9], VVAALLAGR [5T4 9-mer peptide 100] displayed an iScore of 0.125. Consider AFSGSNASV (also called Peptide No 81) [5T4 9-mer peptide 81 AFSGSNASV], for which, in [14], the t½ half life was 0.7 h. Consider LQGLPHIRV (also called Peptide No 141) [5T4 9-mer peptide 141 LQGLPHIRV], for which, in assay [16], the t½ half life came out at 1.1 h. With TLAELQGLP [5T4 9-mer peptide 139 TLAELQGLP], in assay [15], the t½ half life is 0.7 h. As for LLVLYLNRK [5T4 9-mer peptide 186], the iScore in assay [4] is 0; in assay [5], 0.386; in assay [6], 0.372; in assay [8], 0.386; in assay [9], 0.375.

Molecule EHLPSLRQL (also called Peptide No 70) [5T4 9-mer peptide 70 EHLPSLRQL] yielded a t½ half life in assay [19] of 1.4 h.

The molecule PLPDQCPAL (also called Peptide No 29) [5T4 9-mer peptide 29 PLPDQCPAL] displayed a t½ half life in assay [20] of 2.8 h. For the molecule LVELILNHI (also called Peptide No 88) [5T4 9-mer peptide 88 LVELILNHI], in assay [19], the t½ half life was determined as 0.3 h. Turning to GSRLDEVRA (also called Peptide No 64) [5T4 9-mer peptide 64 GSRLDEVRA], in [13], the t½ half life stood at 1.9 h.

(Values after US20090280138A1 (OXFORD BIOMEDICA UK, published 2009).)
